Columns and labels:
[1] = target: G-CSF-R (Homo sapiens (Human)) (UniProt Q99062); experiment: potency ELISA, plate coated with G-CSFR, HRP detection, parallel line analysis; 120 mg/mL formulation, 6 months at 5 C
[2] = target: G-CSF-R (Homo sapiens (Human)) (UniProt Q99062); experiment: potency ELISA, plate coated with G-CSFR, HRP detection, parallel line analysis; 120 mg/mL formulation, 9 months at 25 C
[3] = target: G-CSF-R (Homo sapiens (Human)) (UniProt Q99062); experiment: potency ELISA, plate coated with G-CSFR, HRP detection, parallel line analysis; 120 mg/mL formulation, 18 months at 5 C
[4] = target: G-CSF-R (Homo sapiens (Human)) (UniProt Q99062); experiment: potency ELISA, plate coated with G-CSFR, HRP detection, parallel line analysis; 120 mg/mL formulation, 6 months at 25 C
[5] = target: G-CSF-R (Homo sapiens (Human)) (UniProt Q99062); experiment: potency ELISA, plate coated with G-CSFR, HRP detection, parallel line analysis; 120 mg/mL formulation, 0 months at 5 C
[6] = target: G-CSF-R (Homo sapiens (Human)) (UniProt Q99062); experiment: potency ELISA, plate coated with G-CSFR, HRP detection, parallel line analysis; 120 mg/mL formulation, 3 months at 25 C
[7] = target: G-CSF-R (Homo sapiens (Human)) (UniProt Q99062); experiment: potency ELISA, plate coated with G-CSFR, HRP detection, parallel line analysis; 120 mg/mL formulation, 12 months at 5 C
[8] = target: G-CSF-R (Homo sapiens (Human)) (UniProt Q99062); experiment: potency ELISA, plate coated with G-CSFR, HRP detection, parallel line analysis; 120 mg/mL formulation, 12 months at 25 C
[9] = target: G-CSF-R (Homo sapiens (Human)) (UniProt Q99062); experiment: potency ELISA, plate coated with G-CSFR, HRP detection, parallel line analysis; 120 mg/mL formulation, 9 months at 5 C
[10] = target: G-CSF-R (Homo sapiens (Human)) (UniProt Q99062); experiment: potency ELISA, plate coated with G-CSFR, HRP detection, parallel line analysis; 120 mg/mL formulation, 0 months at 25 C
[11] = target: G-CSF-R (Homo sapiens (Human)) (UniProt Q99062); experiment: potency ELISA, plate coated with G-CSFR, HRP detection, parallel line analysis; 120 mg/mL formulation, 3 months at 5 C
[12] = target: G-CSF-R (Homo sapiens (Human)) (UniProt Q99062); experiment: potency ELISA, plate coated with G-CSFR, HRP detection, parallel line analysis; 120 mg/mL formulation, 18 months at 25 C
[13] = target: G-CSF-R (Homo sapiens (Human)) (UniProt Q99062); experiment: potency ELISA, plate coated with G-CSFR, HRP detection, parallel line analysis; 120 mg/mL formulation, 24 months at 5 C

potency relative to reference standard [1]: 108%
potency relative to reference standard [2]: 99%
potency relative to reference standard [3]: 100%
potency relative to reference standard [4]: 109%
potency relative to reference standard [5]: 108%
potency relative to reference standard [6]: 109%
potency relative to reference standard [7]: 107%
potency relative to reference standard [8]: 96%
potency relative to reference standard [9]: 108%
potency relative to reference standard [10]: 108%
potency relative to reference standard [11]: 116%
potency relative to reference standard [12]: 96%
potency relative to reference standard [13]: 103%
Substance: CSL324 (antibody)
